# Molecular target: T1, rCCN2 (cellular communication network factor 2) (UniProt P29279)
# T1 sequence: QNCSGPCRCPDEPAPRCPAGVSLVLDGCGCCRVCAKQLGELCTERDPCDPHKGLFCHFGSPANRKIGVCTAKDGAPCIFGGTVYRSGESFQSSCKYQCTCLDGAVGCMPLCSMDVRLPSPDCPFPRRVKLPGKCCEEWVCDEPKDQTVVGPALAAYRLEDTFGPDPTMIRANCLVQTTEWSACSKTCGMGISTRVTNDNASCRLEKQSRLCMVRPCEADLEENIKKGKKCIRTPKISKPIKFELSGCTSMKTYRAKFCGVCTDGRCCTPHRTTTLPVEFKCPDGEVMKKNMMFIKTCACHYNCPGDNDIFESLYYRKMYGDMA
# Test: EMSA
# Details: 20 mM HEPES (pH not stated), 45 mM KCl, 10 mM NaCl, 1 mM DTT, 0.1% NP-40, 10% glycerol, 4 C overnight; 4% polyacrylamide gel in TBE
sequence,measurement,value
GCACACATGCTTCCTGTGGTGACTGGGCGCTTCCTGTTTTCTCAGGCACCGGCCTTGCTGCTGCCGATGTGGAAACAGGGGCAGCTGCAGCCAGGGCGGCTCCAGGCTGGGCACTCTGACCCTGCCCAGAAGGGAGTGAGGGGGCCCACCACCCTTAGACTTACGATCTAGACAGTGGGT (double strand) [Spi1 proximal promoter probe (178 bp)],binding,binds
